Measurements published in the RNAGym collection of RNA variant scans (doi:10.1073/pnas.2313332121).
This sample holds only a part of the variants without activity.

B1: TPR 5TU (parent)
chain: GGAUCUUCUCGAUCUAACAAAAAAGACAAAUCUGCCACAAAGCUUGAGAGCAUCUUCGGAUGCAGAGGCGGCAGCCUUCGGUGGCGCGAUAGCGCCAACGUUCUCAACUAUGACACGCAAAACGCGUGCUCCGUUGAAUGGAGUUUAUCAUG

Variants of: B1
Test: polymerase ribozyme fitness, log enrichment relative to wild type (log ratio); higher = more active; in vitro selection for triplet polymerase activity
In short: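 After PCR construction and transcription, each subunit's mutant library from a heterodimeric triplet polymerase ribozyme was annealed with a biotinylated primer, the partner subunit and triplets. Incubation was frozen, at −7 °C, and extended constructs were gel-excised, bound to streptavidin beads and amplified by RT-PCR, in one selection round done in triplicate. Fitness is the logarithm of a genotype's enrichment divided by that of the wild type, from inverse-variance-weighted replicate averages of Illumina-sequenced inputs and outputs. The base of the logarithm is 2, and genotypes needed ≥10 input reads and ≥1 read per output.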

Point of comparison: GGAUCUUCUCGAUCUAACAAAAAAGACAAAUCUGCCACAAAGCUUGAGAGUAUCUUCGGAUGCAGAGGCGGCGGCCUUCGGUGGCGCGAUAGCGCGAACGUUCUCAACUAUGACACGCAAAAUGCGUGCUCCGUUGAAUGGAGUUUAUCAUG, “polymerase ribozyme fitness (log ratio)” value -0.999. Against it:
- GGAUCUUCUCGAUCUAACAAAAAAGACAAAUCUGCCACAAAGCUUGAGAGUAUCUUCGGAUGCAGAGGGGGCAGCCUUCGGUGGCGCGAUAGCGCCAACGUUCUCAACUAUGACACGGAAAACGCGUGCUCCGUUGAAUGGCGUUUAUGAUG — lower, ≤ -4.2
- GGAUCUUCUCGAUCUAACAAAAAAGACAAAUCUGCCACAAAGCUUGAGAGUAUCUUCGGAUGCCGAGGCGGCAGCCUUAGGUGGUGCGAUAGCGCCAACGUUCUCAACUAUGACACGCAAAACGCGUGCUCCGUUGAAUGGGGUUUAUCAUG — lower, ≤ -4.2
- GGAUCUUCUCGAUCUAACAAAAAAGACAAAUCUGCCACAAAGCUUGAGAGUAUCUUCGGAUGCAGAGGCGGCAGCCUUCGGUGGCGCGCUAGCGCUAACGUUCUCAACUAUGACACGCAAAACGCGUGCUCCGUUGAAUGGUGUUUAUCAUG — lower, -2.78
- GGAUCUUCUCGAUCUAACAAAAAAGACAAAUCUGCCACAAAGCUUGAGAGUAUCUUCGGAUGCAGAGGCGGUAGCCUUCGGUGGCGCGAUACCGCCAGCGUUCUCAACUAUGACACGCAAAACGCGGGCUCCGUUGACUAGAGUUUAUCAUG — lower, ≤ -4.2
- GGAUCUUCUCGAUCUAACAAAAAAGACAAAUCUGCCACAAAGCUUGAGAGUAUUUUCGGAUGCAGAGGCGGCAGCCUUCGGUGGAGCGAUAGCGCCAUCGUUCUCAACUAUGACACGCAAAACGCGUGCUCCGUUGAAUGGAGUUUAUCAUG — lower, -2.81
- GGAUCUUCUCGAUCUAACAAAAAAGACAAAUCUGCCACAAAGCUUGAGAGUAUCUUCGGAUGCAGAGGCGGCAGCCUUCGGUGGCGGGAUAGGGCCAACGUUCUGCACUAUGGCACGCAAAACGCGUGCUCCGUUGAAUGGAGUUUAUCAUG — lower, ≤ -4.2
- GGAUCUUCUCGAUCUAACAAAAAAGACAAAUCUGCCACAAAGCUUGAGAGUAUCUUCGGAUGCAGAGGCGGCAGCCUUCGGUGGCGCGAUAGCGCCAUCGUUCUCAACUAUGACACGCAAAACGCGUGCUCCGUCGAAUGGAGAUUAUCAUG — lower, -3.82
- GGAUCUUCUCGAUCUAACAAAAAAGACAAAUCUGCCACAAAGCUUGAGAGUAUCUUCGGAUGCAGAGGCGGCAGCCUUCGGUGGCGCGAUAGAGCCAACGUUCUCAACUAUGACACGCAAAACGCGUGCUCCGUUGAAUGGAGUUUAUCUUG — within 0.2 log units, -0.998
- GGAUCUUCUCGAUCUAACAAAAAAGACAAAUCUGCCACAAAGCUUGAGAGUAUCUUCGGAUGCAGAGGCGGCAGUCUUCGGUGGCGCGAUAGCGCUAACGUUCUCAACUAUGACACGCAAAACGCGUGCUCCGUUGAAUGGACUUUAUCAUG — lower, -4.11
- GGAUCUUCUCGAUCUAACAAAAAAGACAAAUCUGCCACAAAGCUUGAGAGUAUCUUCGGAUGCAGAGGCGGCAGCCUUCGGUGGCGCGAUGGCGCCAACAUUCUCAACUUUGACACGCAAUACGCGUGCUCCGUUGAAUGGAGUUUAUCAUG — lower, ≤ -4.2
- GGAUCUUCUCGAUCUAACAAAAAAGACAAAUCUGCCACAAAGCUUGAGAGUAUCUUCGGAUGCAGAGGCGGCAGCCUUCGGUGGUGCGAUAGCGCGAACGUUCUCAACUAUGACACGCCAAACGCGUGCUCCGUUGAAUGAAGUUUAUCAUG — lower, -2.65
- GGAUCUUCUCGAUCUAACAAAAAAGACAAAUCUGCCACAAAGCUUGAGAGUAUCUUCGGAUGCAGAGGCGGCAGCCUUCGGUGGAGCGAUAGCGCCAACGUUCUCAACUAUGACACGCAAAACGCGUGCUCCGUUGAAUGGAGUUUAUCAUG — lower, -2.63
- GGAUCUUCUCGAUCUAACAAAAAAGACAAAUCUGCCACAAAGCUUGAGAGUAUCUUCGGAUGCAGAGGCGGCAGCCUUCGGUGGGGCGAUAGCGCCAACGUUCUCAACUAUGACACGCAAAACGCGUGCUCCGUUGAAUGGAGUUUAUCAUG — lower, -2.53
- GGAUCUUCUCGAUCUAACAAAAAAGACAAAUCUGCCACAAAGCUUGAGAGUAUCUUCGGAUGCAGAGGCGGCAGCCUUCGGUGGCGAGAUAGCGCCAACGUUCUCAACUAUGACACGCAAAACGCGUGCUCCGUUGAAUGGAGUUUAUCAUG — lower, ≤ -4.2
- GGAUCUUCUCGAUCUAACAAAAAAGACAAAUCUGCCACAAAGCUUGAGAGUAUCUUCGGAUGCAGAGGCGGCAGCCUUCGGUGGCGUGAUAGCGCCAACGUUCUCAACUAUGACACGCAAAACGCGUGCUCCGUUGAAUGGAGUUUAUCAUG — within 0.2 log units, -1.13
- GGAUCUUCUCGAUCUAACAAAAAAGACAAAUCUGCCACAAAGCUUGAGAGUAUCUUCGGAUGCAGAGGCGGCUGCCUUCGGUGGCGCGAUAGCGCCAACGUUCUCAACUAUGACACGGCAAACGCGUGCUCCGUUGAAUGGAGUUUAUCAUG — lower, -1.81
- GGAUCUUCUCGAUCUAACAAAAAAGACAAAUCUGCCACAAAGCUUGAGAGUAUCUUCGGAUGCAGAGGCGGCAGCCUUCGGUGGCGCGAUAGCGACAUCGUUCUCAACUAUGACAGGCAAAACGCGUGCUCCGUUGAAUGGAGUUUAUCAUG — higher, 0.822
- GGAUCUUCUCGAUCUAACAAAAAAGACAAAUCUGCCACAAAGCUUGAGAGUAUCUUAGGAUGCAGAGGCGGCAGCCUUCGGUCGCGCGAUAGCGCCAACGUUCUCGACUAUGACACGCAAAACGCGUGCUCCGUUGAAUGGAGUUUAUCAUG — within 0.2 log units, -0.97
